Molecular target: BAFF-R (human, UniProt Q96RJ3)
Assay: other, in vitro experiments

BAFF-R, sequence (Q96RJ3 7-71): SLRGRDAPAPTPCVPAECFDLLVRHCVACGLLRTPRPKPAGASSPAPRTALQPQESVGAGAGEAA

Kd: 46 pM
B1: ianalumab (VAY736) (antibody, V domains shown)
VH: QVQLQQSGPGLVKPSQTLSLTCAISGDSVSSNSAAWGWIRQSPGRGLEWLGRIYYRSKWYNSYAVSVKSRITINPDTSKNQFSLQLNSVTPEDTAVYYCARYDWVPKIGVFDSWGQGTLVTVSS
VL: DIVLTQSPATLSLSPGERATLSCRASQFISSSYLSWYQQKPGQAPRLLIYGSSSRATGVPARFSGSGSGTDFTLTISSLEPEDFAVYYCQQLYSSPMTFGQGTKVEIKR
